Laboratory results reported in paper PMC5640651, “Interfering with the high-affinity interaction between wheat amylase trypsin inhibitor CM3 and toll-like receptor 4: in silico and biosensor-based studies” (Scientific Reports, 2017).

Experiments:
Conditions in all cases: both partners purified
[1] = target: T1, human toll-like receptor 4, His-tagged (human, UniProt O00206 24-631); test: SPR; IAsys plus resonant mirror biosensor; TLR4-His immobilised; 37 °C; 20 mM PBS, no NaCl
T1 construct: toll-like receptor 4, human; called the extracellular domain of TLR4 in the results; described as a 100 kDa protein with isoelectric point 5.88; Coupled covalently to the carboxylate cuvette by EDC/NHS 'via the N-terminus of the poly-His tail'; also called TLR4; TLR4-His; source: pEF-BOS TLR4 plasmid, transfected in HCT-116 cell line (author contributions)

[2] = target: T1, human toll-like receptor 4, His-tagged; test: SPR; IAsys plus resonant mirror biosensor; TLR4-His immobilised; 37 °C; 20 mM PBS, 25 mM NaCl
[3] = target: T1, human toll-like receptor 4, His-tagged; test: SPR; IAsys plus resonant mirror biosensor; TLR4-His immobilised; 37 °C; 20 mM PBS, 50 mM NaCl
[4] = target: T1, human toll-like receptor 4, His-tagged; test: SPR; IAsys plus evanescent wave/resonant mirror biosensor (the paper calls it surface plasmon resonance); TLR4-His covalently immobilised on carboxylate cuvette; 37 °C; PBS pH 7.4 with 140 mM NaCl; mono-exponential fits
[5] = target: T1, human toll-like receptor 4, His-tagged; test: as above; remark: listed apart in the source
[6] = target: T1, human toll-like receptor 4, His-tagged; test: as above; remark: listed apart in the source

T1 sequence (O00206 24-631): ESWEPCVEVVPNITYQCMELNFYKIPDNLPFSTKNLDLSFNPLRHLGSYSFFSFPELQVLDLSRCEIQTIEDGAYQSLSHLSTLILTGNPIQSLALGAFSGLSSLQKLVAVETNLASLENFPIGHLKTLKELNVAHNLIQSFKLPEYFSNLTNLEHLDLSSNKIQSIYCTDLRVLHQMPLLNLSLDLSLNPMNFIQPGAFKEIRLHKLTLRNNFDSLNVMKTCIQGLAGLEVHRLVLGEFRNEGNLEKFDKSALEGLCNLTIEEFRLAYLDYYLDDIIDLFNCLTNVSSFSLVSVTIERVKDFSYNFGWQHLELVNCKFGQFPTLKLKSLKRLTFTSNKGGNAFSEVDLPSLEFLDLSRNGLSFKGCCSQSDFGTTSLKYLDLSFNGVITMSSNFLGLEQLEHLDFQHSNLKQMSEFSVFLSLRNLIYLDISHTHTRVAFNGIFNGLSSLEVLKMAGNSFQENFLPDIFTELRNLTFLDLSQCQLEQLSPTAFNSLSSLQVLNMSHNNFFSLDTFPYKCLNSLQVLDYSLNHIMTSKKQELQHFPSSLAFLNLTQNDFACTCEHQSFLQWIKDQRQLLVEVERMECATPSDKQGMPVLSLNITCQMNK

B1: wheat amylase trypsin inhibitor CM3 (natural protein, UniProt P17314 26-168, looked up)
chain: SGSCVPGVAFRTNLLPHCRDYVLQQTCGTFTPGSKLPEWMTSASIYSPGKPYLAKLYCCQELAEISQQCRCEALRYFIALPVPSQPVDPRSGNVGESGLIDLPGCPREMQWDFVRLLVAPGQCNLATIHNVRYCPAVEQPLWI
notes: also called ATI; wheat ATI CM3
For B1, which Kd [1] is on record?
The Kd was 2.3 nM.

What about the koff [1] of the same binder?
The koff was 0.0001 s⁻¹.

And the kon [1]?
Its kon is 43000 M⁻¹ s⁻¹.

And the Kd [2]?
Its Kd is 10 nM.

What about the koff [2] of the same binder?
Its koff is 0.0004 s⁻¹.

And the kon [2]?
Its kon is 39000 M⁻¹ s⁻¹.

And the Kd [3]?
Its Kd is 18 nM.

And the koff [3]?
The koff was 0.0007 s⁻¹.

And the kon [3]?
Its kon is 40000 M⁻¹ s⁻¹.

And the Kd [4]?
Its Kd is 36 nM.

What about the “stoichiometry N” value [4] of the same binder?
The value was 1.

And the Kd [5]?
Its Kd is 61 nM.

And the koff [5]?
Its koff is 0.0025 s⁻¹.

What about the kon [5] of the same binder?
The kon was 41000 M⁻¹ s⁻¹.

B2: RSGNVGESGLI oligopeptide derived from wheat ATI CM3 (peptide)
peptide: RSGNVGESGLI
notes: stretch of wheat ATI CM3; also called straight peptide; StrP; source: synthetic peptide
How did the “stoichiometry N” value [4] turn out when B2 was run?
Its value is 1.

What about the Kd [6] of the same binder?
Its Kd is 1400 nM.

And the koff [6]?
Its koff is 0.005 s⁻¹.

And the kon [6]?
Its kon is 3620 M⁻¹ s⁻¹.
